Test results: PMC7600612 (2020)

T1: FGFRL1 Ig2 (Homo sapiens, UniProt Q8N441)
T1 chain: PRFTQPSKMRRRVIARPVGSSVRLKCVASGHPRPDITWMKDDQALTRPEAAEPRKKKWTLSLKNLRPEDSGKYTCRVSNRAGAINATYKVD


How the values were obtained:
[1] = target: FGFR1 (Homo sapiens) (UniProt P11362); conditions: cited from earlier work
[2] = target: FGFRL1 (Homo sapiens) (UniProt Q8N441); conditions: cited from earlier work
[3] = target: FGFR2 (Homo sapiens) (UniProt P21802); conditions: cited from earlier work
[4] = target: Human FGF8b (fibroblast growth factor 8, isoform b) (human); assay: SPR; Biacore X100; FGF8b covalently attached (amine coupling, 295 RU) to a matrix-free C1 chip; FGFRL1 polypeptides injected at 3.125-50 nM in HBS-EP+ (10 mM HEPES, 150 mM NaCl, 3 mM EDTA, 0.05% P20, pH 7.4), 30 μL/min, 120 s association, 240 s dissociation; global kinetic fit to a 1:1 model
[5] = target: T1, FGFRL1 Ig2; assay: SPR

FGFRL1 Ig123 (complete extracellular domain of human fibroblast growth factor receptor-like protein 1), sequence (Q8N441 25-359): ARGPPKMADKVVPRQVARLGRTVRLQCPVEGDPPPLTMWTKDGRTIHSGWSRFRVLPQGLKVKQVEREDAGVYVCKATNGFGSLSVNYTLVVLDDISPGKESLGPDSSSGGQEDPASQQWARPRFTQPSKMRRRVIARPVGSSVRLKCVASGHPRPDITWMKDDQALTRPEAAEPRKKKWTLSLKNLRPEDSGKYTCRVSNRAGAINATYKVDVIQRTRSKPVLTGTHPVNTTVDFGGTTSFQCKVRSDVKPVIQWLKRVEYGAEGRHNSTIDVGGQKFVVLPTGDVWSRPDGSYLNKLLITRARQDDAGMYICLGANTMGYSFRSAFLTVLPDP
FGFRL1 Ig2 construct, sequence (Q8N441 other isoform, or with tags, fused parts or gaps): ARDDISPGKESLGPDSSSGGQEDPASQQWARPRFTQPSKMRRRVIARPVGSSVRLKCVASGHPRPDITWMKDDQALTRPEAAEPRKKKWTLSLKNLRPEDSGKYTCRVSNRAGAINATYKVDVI
FGFRL1 Ig12 construct, sequence (Q8N441 25-239): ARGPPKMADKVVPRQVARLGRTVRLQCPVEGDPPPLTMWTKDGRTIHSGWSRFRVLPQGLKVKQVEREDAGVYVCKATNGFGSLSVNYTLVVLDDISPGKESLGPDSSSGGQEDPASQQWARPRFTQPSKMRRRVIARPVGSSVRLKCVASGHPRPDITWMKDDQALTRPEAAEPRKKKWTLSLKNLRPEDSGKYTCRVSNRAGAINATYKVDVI
FGFR1 (Homo sapiens), sequence (P11362 22-822 P252R): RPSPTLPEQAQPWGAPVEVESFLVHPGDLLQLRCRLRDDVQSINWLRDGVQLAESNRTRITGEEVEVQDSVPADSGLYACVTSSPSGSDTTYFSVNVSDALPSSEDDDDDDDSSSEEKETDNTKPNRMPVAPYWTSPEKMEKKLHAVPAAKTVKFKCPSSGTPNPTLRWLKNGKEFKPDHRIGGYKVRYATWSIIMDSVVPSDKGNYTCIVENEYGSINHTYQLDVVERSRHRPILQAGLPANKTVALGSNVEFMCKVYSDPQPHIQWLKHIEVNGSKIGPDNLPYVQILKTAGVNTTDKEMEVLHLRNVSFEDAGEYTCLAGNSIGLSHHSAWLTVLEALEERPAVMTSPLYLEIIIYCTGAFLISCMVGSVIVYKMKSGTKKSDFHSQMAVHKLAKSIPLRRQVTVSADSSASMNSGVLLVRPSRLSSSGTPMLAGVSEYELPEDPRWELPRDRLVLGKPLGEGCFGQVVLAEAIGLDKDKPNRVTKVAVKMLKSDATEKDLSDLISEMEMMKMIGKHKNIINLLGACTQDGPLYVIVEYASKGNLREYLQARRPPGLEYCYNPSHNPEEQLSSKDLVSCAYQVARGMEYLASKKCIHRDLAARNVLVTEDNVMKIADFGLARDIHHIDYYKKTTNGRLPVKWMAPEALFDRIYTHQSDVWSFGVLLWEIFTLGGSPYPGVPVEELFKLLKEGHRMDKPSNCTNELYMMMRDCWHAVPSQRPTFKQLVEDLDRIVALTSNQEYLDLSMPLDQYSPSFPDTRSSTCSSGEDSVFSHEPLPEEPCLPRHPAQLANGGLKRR
FGF2, sequence (P09038 143-288): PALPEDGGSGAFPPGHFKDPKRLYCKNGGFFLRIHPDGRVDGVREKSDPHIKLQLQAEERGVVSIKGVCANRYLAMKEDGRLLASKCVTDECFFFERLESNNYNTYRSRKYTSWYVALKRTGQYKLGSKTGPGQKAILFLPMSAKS
FGFRL1 (Homo sapiens), sequence (Q8N441 25-378): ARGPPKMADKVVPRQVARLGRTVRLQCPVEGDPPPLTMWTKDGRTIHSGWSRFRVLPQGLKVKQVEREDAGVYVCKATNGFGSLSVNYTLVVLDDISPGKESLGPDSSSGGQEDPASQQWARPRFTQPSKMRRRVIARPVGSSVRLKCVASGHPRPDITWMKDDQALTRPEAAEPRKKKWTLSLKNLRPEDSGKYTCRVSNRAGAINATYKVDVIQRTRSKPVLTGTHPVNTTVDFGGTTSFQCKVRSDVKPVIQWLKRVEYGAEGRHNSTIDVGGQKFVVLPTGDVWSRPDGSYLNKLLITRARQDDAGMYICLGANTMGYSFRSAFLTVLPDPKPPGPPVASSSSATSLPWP
FGFR2 (Homo sapiens), sequence (P21802 22-377): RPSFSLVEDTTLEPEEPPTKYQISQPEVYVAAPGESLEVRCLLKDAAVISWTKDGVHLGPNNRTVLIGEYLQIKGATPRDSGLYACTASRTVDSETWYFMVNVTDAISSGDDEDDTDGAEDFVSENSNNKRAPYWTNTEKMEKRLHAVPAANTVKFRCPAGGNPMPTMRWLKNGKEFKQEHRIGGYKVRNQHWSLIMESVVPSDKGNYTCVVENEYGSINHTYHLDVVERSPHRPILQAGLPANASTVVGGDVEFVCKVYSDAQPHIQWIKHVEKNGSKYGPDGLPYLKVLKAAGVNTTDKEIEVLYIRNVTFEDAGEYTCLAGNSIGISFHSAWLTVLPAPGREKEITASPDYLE
FGF3, sequence (P11487 18-239): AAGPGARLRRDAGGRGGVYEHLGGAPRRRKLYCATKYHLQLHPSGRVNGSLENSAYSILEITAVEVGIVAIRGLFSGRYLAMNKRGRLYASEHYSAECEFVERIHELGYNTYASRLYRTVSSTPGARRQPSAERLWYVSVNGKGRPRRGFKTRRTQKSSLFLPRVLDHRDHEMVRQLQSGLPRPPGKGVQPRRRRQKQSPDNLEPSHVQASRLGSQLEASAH

| Molecule | Kd [4] [nM] | koff [4] [s⁻¹] | kon [4] [M⁻¹ s⁻¹] | other results |
| --- | --- | --- | --- | --- |
| FGF2 (from UniProt P09038) |  |  |  | Kd [1]: 24 nM |
| FGF3 (from UniProt P11487) |  |  |  | Kd [2]: 4.2 nM |
| FGF8 (from UniProt P55075) |  |  |  | Kd [3]: 130 nM |
| FGF8 (protein) QEGPGRGPALGRELASLFRAGREPQGVSQQHVREQSLVTDQLSRRLIRTYQLYSRTSGKHVQVLANKRINAMAEDGDPFAKLIVETDTFGSRVRVRGAETGLYICMNKKGKLIAKSNGKGKDCVFTEIVLENNYTALQNAKYEGWYMAFTRKGRPRKGSKTRQHQREVHFMKRLPRGHHTTEQSLRFEFLNYPPFTRSLRGSQRTWAPEPR |  |  |  | Kd [5]: 1.7 nM |

Continued, in another order:

| Kd [4] [nM] | koff [4] [s⁻¹] | kon [4] [M⁻¹ s⁻¹] | Molecule | other results |
| --- | --- | --- | --- | --- |
| 1.73 | 0.0092 | 5.32e+06 | FGFRL1 Ig2 construct (from UniProt Q8N441 25-26; Q8N441 118-239) (domain or fragment) |  |
| 1.94 | 0.0107 | 5.49e+06 | FGFRL1 Ig12 construct (from UniProt Q8N441 25-239) (domain or fragment) |  |
| 2.07 | 0.000806 | 390000 | FGFRL1 Ig23 construct (from UniProt Q8N441 25-26; Q8N441 118-357) (domain or fragment) |  |
| 3.37 | 0.00126 | 373000 | FGFRL1 Ig123 (complete extracellular domain of human fibroblast growth factor receptor-like protein 1) (from UniProt Q8N441 25-359) (domain or fragment) |  |
